Experimental data: patent US20260347469 (published 2026)

Biological target: 4-1BB-Fc (human, UniProt Q07011)
Assay: BLI, 24C, avidity

Sequence of 4-1BB-Fc (Q07011 24-186): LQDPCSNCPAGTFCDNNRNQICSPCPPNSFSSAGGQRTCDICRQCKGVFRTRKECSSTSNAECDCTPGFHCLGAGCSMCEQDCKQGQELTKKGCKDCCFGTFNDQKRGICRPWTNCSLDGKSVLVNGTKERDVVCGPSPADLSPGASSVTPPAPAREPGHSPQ

B1: D2 (4-1BBL trimer-Fc) (protein)
chain: KEITNALETWGALGQDINLDIPSFQMSDDIDDIKWEKTSDKKKIAQFRKEKETFKEKDTYKLFKNGTLKIKHLKTDDQDIYKVSIYDTKGKNVLEKIFDLKIQERVSKPKISWTCINTTLTCEVMNGTDPELNLYQDGKHLKLSQRVITHKWTTSLSAKFKCTAGNKVSKESSVEPVSCPEKGLDIYLIIGICGGGSLLMVFVALLVFYITKRKKQRSRRNDEELETRAHRVATEERGRKPHQIPASTPQNPATSQHPPPPPGHRSQAPSHRPPPPGHRVQHQPQKRPPAPSGTQVHQQKGPPLPRPRVQPKPPHGAAENSLSPSSN
  Kd: 0.02 nM
